Measured values: US20130011378A1, “Stable formulations of a hyaluronan-degrading enzyme” (priority 2011, published 2013)

Assay: RP-HPLC: insulin apparent solubility / percent recovery
Settings: for Solubility of Lispro, % remaining of the original concentration: 7 days at 2-8° C.
Outline: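 Vial samples withdrawn at each time point, centrifuged, held at 4 °C, run in duplicate by RP-HPLC. Apparent solubility = combined insulin main and desamido peak areas as percent versus standards/initial formulation; purity = main insulin peak as percent of all insulin species.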

Which results are given for “insulin Lispro: insulin analog LysB28, ProB29; SEQ ID NO:103 and 148”?
Solubility of Lispro, % remaining of the original concentration (0.2% methylparaben + […] m-cresol, pH 6.6, NaCl 50 mM): 42.0%; Solubility of Lispro, % remaining of the original concentration (0.2% methylparaben + […] m-cresol, pH 6.6, NaCl 80 mM): 28.2%; Solubility of Lispro, % remaining of the original concentration (0.2% methylparaben + […] m-cresol, pH 6.6, NaCl 110 mM): 24.1%; Solubility of Lispro, % remaining of the original concentration (0.2% methylparaben + […] m-cresol, pH 6.6, NaCl 140 mM): 25.9%; Solubility of Lispro, % remaining of the original concentration (0.2% methylparaben + […] m-cresol, pH 6.8, NaCl 50 mM): 82.3%; Solubility of Lispro, % remaining of the original concentration (0.2% methylparaben + […] m-cresol, pH 6.8, NaCl 80 mM): 62.6%; Solubility of Lispro, % remaining of the original concentration (0.2% methylparaben + […] m-cresol, pH 6.8, NaCl 110 mM): 47.8%; Solubility of Lispro, % remaining of the original concentration (0.2% methylparaben + […] m-cresol, pH 6.8, NaCl 140 mM): 42.0%; Solubility of Lispro, % remaining of the original concentration (0.2% methylparaben + […] m-cresol, pH 7.0, NaCl 50 mM): 95.3%; Solubility of Lispro, % remaining of the original concentration (0.2% methylparaben + […] m-cresol, pH 7.0, NaCl 80 mM): 98.1%; Solubility of Lispro, % remaining of the original concentration (0.2% methylparaben + […] m-cresol, pH 7.0, NaCl 110 mM): 94.1%; Solubility of Lispro, % remaining of the original concentration (0.2% methylparaben + […] m-cresol, pH 7.0, NaCl 140 mM): 65.6%; Solubility of Lispro, % remaining of the original concentration (0.2% methylparaben + […] m-cresol, pH 7.2, NaCl 50 mM): 95.7%; Solubility of Lispro, % remaining of the original concentration (0.2% methylparaben + […] m-cresol, pH 7.2, NaCl 80 mM): 97.9%; Solubility of Lispro, % remaining of the original concentration (0.2% methylparaben + […] m-cresol, pH 7.2, NaCl 110 mM): 99.6%; Solubility of Lispro, % remaining of the original concentration (0.2% methylparaben + […] m-cresol, pH 7.2, NaCl 140 mM): 98.0%; Solubility of Lispro, % remaining of the original concentration (0.2% methylparaben + […] m-cresol, pH 7.4, NaCl 50 mM): 95.6%; Solubility of Lispro, % remaining of the original concentration (0.2% methylparaben + […] m-cresol, pH 7.4, NaCl 80 mM): 98.2%; Solubility of Lispro, % remaining of the original concentration (0.2% methylparaben + […] m-cresol, pH 7.4, NaCl 110 mM): 99.9%; Solubility of Lispro, % remaining of the original concentration (0.2% methylparaben + […] m-cresol, pH 7.4, NaCl 140 mM): 98.5%; Solubility of Lispro, % remaining of the original concentration (0.2% methylparaben + […] m-cresol, pH 7.6, NaCl 50 mM): 95.7%; Solubility of Lispro, % remaining of the original concentration (0.2% methylparaben + […] m-cresol, pH 7.6, NaCl 80 mM): 98.3%; Solubility of Lispro, % remaining of the original concentration (0.2% methylparaben + […] m-cresol, pH 7.6, NaCl 110 mM): 100.2%; Solubility of Lispro, % remaining of the original concentration (0.2% methylparaben + […] m-cresol, pH 7.6, NaCl 140 mM): 98.8%; Solubility of Lispro, % remaining of the original concentration (0.2% phenol + […] m-cresol, pH 6.6, NaCl 50 mM): 52.8%; Solubility of Lispro, % remaining of the original concentration (0.2% phenol + […] m-cresol, pH 6.6, NaCl 80 mM): 32.8%; Solubility of Lispro, % remaining of the original concentration (0.2% phenol + […] m-cresol, pH 6.6, NaCl 110 mM): 26.0%; Solubility of Lispro, % remaining of the original concentration (0.2% phenol + […] m-cresol, pH 6.8, NaCl 50 mM): 91.4%; Solubility of Lispro, % remaining of the original concentration (0.2% phenol + […] m-cresol, pH 6.8, NaCl 80 mM): 65.1%; Solubility of Lispro, % remaining of the original concentration (0.2% phenol + […] m-cresol, pH 6.8, NaCl 110 mM): 44.9%; Solubility of Lispro, % remaining of the original concentration (0.2% phenol + […] m-cresol, pH 6.8, NaCl 140 mM): 40.4%; Solubility of Lispro, % remaining of the original concentration (0.2% phenol + […] m-cresol, pH 7.0, NaCl 50 mM): 97.4%; Solubility of Lispro, % remaining of the original concentration (0.2% phenol + […] m-cresol, pH 7.0, NaCl 80 mM): 95.5%; Solubility of Lispro, % remaining of the original concentration (0.2% phenol + […] m-cresol, pH 7.0, NaCl 110 mM): 75.2%; Solubility of Lispro, % remaining of the original concentration (0.2% phenol + […] m-cresol, pH 7.0, NaCl 140 mM): 65.3%; Solubility of Lispro, % remaining of the original concentration (0.2% phenol + […] m-cresol, pH 7.2, NaCl 50 mM): 97.6%; Solubility of Lispro, % remaining of the original concentration (0.2% phenol + […] m-cresol, pH 7.2, NaCl 80 mM): 97.4%; Solubility of Lispro, % remaining of the original concentration (0.2% phenol + […] m-cresol, pH 7.2, NaCl 110 mM): 95.2%; Solubility of Lispro, % remaining of the original concentration (0.2% phenol + […] m-cresol, pH 7.2, NaCl 140 mM): 90.8%; Solubility of Lispro, % remaining of the original concentration (0.2% phenol + […] m-cresol, pH 7.4, NaCl 50 mM): 97.7%; Solubility of Lispro, % remaining of the original concentration (0.2% phenol + […] m-cresol, pH 7.4, NaCl 80 mM): 97.6%; Solubility of Lispro, % remaining of the original concentration (0.2% phenol + […] m-cresol, pH 7.4, NaCl 110 mM): 97.0%; Solubility of Lispro, % remaining of the original concentration (0.2% phenol + […] m-cresol, pH 7.4, NaCl 140 mM): 96.9%; Solubility of Lispro, % remaining of the original concentration (0.2% phenol + […] m-cresol, pH 7.6, NaCl 50 mM): 97.5%; Solubility of Lispro, % remaining of the original concentration (0.2% phenol + […] m-cresol, pH 7.6, NaCl 80 mM): 97.7%; Solubility of Lispro, % remaining of the original concentration (0.2% phenol + […] m-cresol, pH 7.6, NaCl 110 mM): 97.3%; Solubility of Lispro, % remaining of the original concentration (0.2% phenol + […] m-cresol, pH 7.6, NaCl 140 mM): 96.8%; time insulin Lispro stable (soluble) (2-8° C., pH 7.0, 50 mM NaCl): 5 months; Solubility (2-8° C., pH 7.0, after 1 week at 80, 110 or 140 mM NaCl): below 65%; time insulin Lispro stable (soluble) (2-8° C., pH 7.6, 140 mM NaCl): 2 weeks; time insulin Lispro stable (soluble) (2-8° C., pH 7.6, 50 and 80 mM NaCl, […] m-cresol, […] phenol): at least 12 months; Solubility of Lispro, % remaining of the original concentration ([…] phenol + […] m-cresol, pH 6.6, NaCl 50 mM): 60.3%; Solubility of Lispro, % remaining of the original concentration ([…] phenol + […] m-cresol, pH 6.6, NaCl 80 mM): 43.3%; Solubility of Lispro, % remaining of the original concentration ([…] phenol + […] m-cresol, pH 6.6, NaCl 110 mM): 24.2%; Solubility of Lispro, % remaining of the original concentration ([…] phenol + […] m-cresol, pH 6.6, NaCl 140 mM): 27.7%; Solubility of Lispro, % remaining of the original concentration ([…] phenol + […] m-cresol, pH 6.8, NaCl 50 mM): 93.6%; Solubility of Lispro, % remaining of the original concentration ([…] phenol + […] m-cresol, pH 6.8, NaCl 80 mM): 60.8%; Solubility of Lispro, % remaining of the original concentration ([…] phenol + […] m-cresol, pH 6.8, NaCl 110 mM): 44.9%; Solubility of Lispro, % remaining of the original concentration ([…] phenol + […] m-cresol, pH 6.8, NaCl 140 mM): 35.9%; Solubility of Lispro, % remaining of the original concentration ([…] phenol + […] m-cresol, pH 7.0, NaCl 50 mM): 98.7%; Solubility of Lispro, % remaining of the original concentration ([…] phenol + […] m-cresol, pH 7.0, NaCl 80 mM): 96.4%; Solubility of Lispro, % remaining of the original concentration ([…] phenol + […] m-cresol, pH 7.0, NaCl 110 mM): 77.0%; Solubility of Lispro, % remaining of the original concentration ([…] phenol + […] m-cresol, pH 7.0, NaCl 140 mM): 61.2%; Solubility of Lispro, % remaining of the original concentration ([…] phenol + […] m-cresol, pH 7.2, NaCl 50 mM): 100.5%; Solubility of Lispro, % remaining of the original concentration ([…] phenol + […] m-cresol, pH 7.2, NaCl 80 mM): 99.2%; Solubility of Lispro, % remaining of the original concentration ([…] phenol + […] m-cresol, pH 7.2, NaCl 110 mM): 97.3%; Solubility of Lispro, % remaining of the original concentration ([…] phenol + […] m-cresol, pH 7.2, NaCl 140 mM): 93.1%; Solubility of Lispro, % remaining of the original concentration ([…] phenol + […] m-cresol, pH 7.4, NaCl 50 mM): 100.8%; Solubility of Lispro, % remaining of the original concentration ([…] phenol + […] m-cresol, pH 7.4, NaCl 80 mM): 101.8%; Solubility of Lispro, % remaining of the original concentration ([…] phenol + […] m-cresol, pH 7.4, NaCl 110 mM): 100.7%; Solubility of Lispro, % remaining of the original concentration ([…] phenol + […] m-cresol, pH 7.4, NaCl 140 mM): 98.4%; Solubility of Lispro, % remaining of the original concentration ([…] phenol + […] m-cresol, pH 7.6, NaCl 50 mM): 100.9%; Solubility of Lispro, % remaining of the original concentration ([…] phenol + […] m-cresol, pH 7.6, NaCl 80 mM): 102.1%; Solubility of Lispro, % remaining of the original concentration ([…] phenol + […] m-cresol, pH 7.6, NaCl 110 mM): 101.6%; Solubility of Lispro, % remaining of the original concentration ([…] phenol + […] m-cresol, pH 7.6, NaCl 140 mM): 101.3%
